From the DeepSol protein solubility set

Test: soluble on expression in E. coli; label from the status in PepcDB or PDB records

Row | Sequence | soluble on expression in E. coli
1 | MSSTSRIMRPDDANIVGNVHGGTILKMIEEAGCIIGTRHCNTQSGDRCLAALARVERTDFLHPMFIGEVAHVSAEITYTSKHSVEVQVNVLAENIVTGAKKVTNKATLWYVPLSLQNVDKIIEVPPIEYSSPEREEAGKKRYEAQKLERLEDKVRNGEIIMSVSLPEPYTVVCSQSSLIHLVGPSDCTLHGFVHGGVTMKLMDEVAGIVAARHCKTNIVTASVDAINFHRKIKKGCVITVSGRMTFTSNKSMEI | soluble
2 | MGSDKIHHHHHHMNSNPFVSVVMSVYNGGEFLKDAINSILSQSYKNFEFIIINDGSSDNFSEILELYDDERIKVLNNQENKGLVYSLNRGLLESIGKYIVRMDADDISLPNRIEKQVEFMEREPEVGVCGSYIEIFGDTIKRKVQRFPSNVNVNEAFLLFSTCLAHPSVIIRKSIVDKYKLRYDDRYLHAEDYAIWCQAVKYTKISNIREVLLKYRILESSVTRQANKNFQSRFDVHKSIYKDIFRNKGIDYTEKELYLHFIISDNNRFRNQALTIRPSEINAHLTKILSHYRGASNYKYIAFLVNKRGLSLSRWYSESRGFYFIMYLFKFLYYKIQIKK | not soluble
3 | GMNVDFINPFLDSLLNVLKTMANMELKPGKPNLKKDNLAKGDVSGLIGMVGPQTKGSLSITFEETLILEIMNKMLGEKPESIDEEVTDLVGELTNMVTGGAKNLLSDKGYEFDMATPIVVSGKNHTIAHKSDGQKIIMPFSSIYGTAYIEICFEG | soluble
4 | DHIPGTDIDLTVPYAAEGPGPTVNTLGDVDGKPVVNVSGAEIHKTTGNLNMTTVSVRTHLTLGQALGRWLIAHDTLVPIEQIFPQGKTPEEVDEVNKAAFSTSEASATIAAMNQLHKPVDT | not soluble
5 | MSLSPARAQEEISRLQQQIKQWDDDYWKEGKSEVEDGVYDQLSARLTQWQRCFGSEPRDVMMPPLNGAVMHPVAHTGVRKMVDKNALSLWMRERSDLWVQPKVDGVAVTLVYRDGKLNKAISRGNGLKGEDWTQKVSLISAVPQTVSGPLANSTLQGEIFLQREGHIQQQMGGINARAKVAGLMMRQDDSDTLNSLGVFVWAWPDGPQLMSDRLKELATAGFTLTQTYTRAVKNADEVARVRNEWWKAELPFVTDGVVVRAAKEPESRHWLPGQAEWLVAWKYQPVAQVAEVKAIQFAVGKSGKISVVASLAPVMLDDKKVQRVNIGSVRRWQEWDIAPGDQILVSLAGQGIPRIDDVVWRGAERTKPTPPENRFNSLTCYFASDVCQEQFISRLVWLGAKQVLGLDGIGEAGWRALHQTHRFEHIFSWLLLTPEQLQNTPGIAKSKSAQLWHQFNLARKQPFTRWVMAMGIPLTRAALNASDERSWSQLLFSTEQFWQQLPGTGSGRARQVIEWKENAQIKKLGSWLAAQQITGFEEGHHHHHH | soluble
6 | MAHHHHHHMLSNVPEEPEKLVREVSDLAEAFITNLKRGKLAAARSGGESLSTAAAVEMADVMSTIVRLFQNAEKDLHSTTIQLLKAGYPAAEVASMQVSRLLILVARTGDAMLRAQFATLFLMNVTRRVLSIVRESAANSKATDAELEDEAKTILNDLASDDEAAVVETPADTSSSSSNRCGMDDSTDPASPSLSAKGMKPALKRDTLVSQPLSRRGLSVRFAGTSTSSEEASGGHMRQLQQHSTSVASDFGGPLLQHTGSIVATEIPGRQLLKRAPSRCEQVLEGGGGEIEFPVRMEIFYQDALDAIDEFKRELEGMTEELCRRSTRQLHSSDTIITLGCSHTIRRYLLEAAQAGHHFKVFILEGAPLPAQATQEFAEALCSRGITAQLLPDSSAYVVMSMCTKVLVGAENVLANGGMLASIGTHVLCAAARHFAVPVLVATTTLKMSPYYPSDQLCTRLVRIARSGAQEMPWSTYGSPEDVWPSPFGVSVSDSGRRLTIHAPVTEYVPPELITLFLTNDSELLPSQIHRIVRANYSDAD | not soluble
7 | MGSDKIHHHHHHMGKVNYAAIDIGSNAVRLLIKSIDREAVQEKKIKKVMMLRVPLRLGFDVFSIGELSEKKADKLRRLMKAFRQLMKIYDVDDYRACATSAMRDARNGRTIIKKIEKDTGIRIEIIDGQEEARMIYNNHIECMEDRLGNYMYVDVGGGSTEINLLTNGELVWSVSYNIGTVRMLSNAVKEGTWQQMEEELMKVTEGVAAINIIGSGGNINKLFRLADKKDKKLQRLPVSSLQTVYDVLKPLTPEERVEAFSLKQDRADVIVPAAEIFLKIAEVVHAEYIYVPVIGLSDGIIDNLYAKSLEKEMKVE | not soluble
8 | MSASVPADLRNLRACLLCSLVKSVESFQKEGCENCEDVLHLKGDEEKVYDCTSANYDGMIAAMSNNESWVCKWQKMQRKVKGMYAISVSGVLPNNIVSELKSLGVRYKPNQRDYSTQFKK | not soluble
9 | MAHHHHHHMLRLCRVSLRVQSHQKKRAQHPNAGTRFGRVYNRGFIRYGFGGFGMSVYTPKKDRRFRVQPLPSLHANSLADDTPLVTTTRTLSPNFRAFALQDGGVFFTHPSHEQVMRVGQNILAEETKATGMTSMDTYVNSRIQSIIAENTVENVALSHWRRRHMWNLVRTHGKLQRHWGVSDATKGARSNIYGRPS | not soluble
10 | GPGSMRALTFRSSLCAGRTAVGAMCFGRLWASSTSATEGSEKQNVTEDSETVSVAPVSPEAYAKLEKELSDAKERIAELKKEVLYRAADAENARRIGSEDVTKAKAYGITSFGKDMLDVVDTLERGLEAITKLPQAEVEGHKTLSSIHTGIKLSLKLLLNNLAKHGIEKLDVAVGAKFDPNFHDALLKVPPTAEAPPGHISTVLKTGYKIQDRVLRASQVGVASDD | not soluble
11 | MSYLVVTIKVILITGMPGSGKSEFAKLLKERGAKVIVMSDVVRKRYSIEAKPGERLMDFAKRLREIYGDGVVARLCVEELGTSNHDLVVFDGVRSLAEVEEFKRLLGDSVYIVAVHSPPKIRYKRMIERLRSDDSKEISELIRRDREELKLGIGEVIAMADYIITNDSNYEEFKRRCEEVTDRVLKNG | not soluble
12 | MAHHHHHHMHTFYTIRYPPPNSQKGGEDSQPIRVTNKAMESLLFCIVHSIEFQSPLQPSRPQLGSSIGSSGKDSITDDEAYVRPVENSSMLLGNVTYVSRSKHKPSVLASLHTAVEAARAIQIPEKSSQVPFELRVRLLRRHRGWLWHDSRPLVEWVFRMAKTREEFSFSTTHGDASERPRPRTSPRATNAHANVVRATGGGGVHSRSREDGLVCSNDPEQIRQVLQFILKHSYDAIDLNTYADFRSGELIFDVSVQEV | not soluble
13 | MINRPSTVNNPFIGTNAVLRLRQQRLEQSTKPFRARGSRVMRCQQCLLPAINCLCHTIQAQPSRSRVCLVMFDTEPLKPSNTGRIIADILPETQAFRWSRTEPDPQLLATLQDPDVQPYLVFLADAAEEGRQVFQQLPATEKPALFVLLDGTWPEARKMFRKSPYLDNLPILSLNVEALSRYQLREASSAGQHCTAEIAIALLAQAGDIVAADALSQHFDRFRQHYLAGKPHHRLQENLPIVTAQPAESVLEHHHHHH | not soluble
14 | GHMAKHQIGVIGLAVMGKNLALNIESKGYSVAVYNRLREKTDEFLQEAKGKNIVGTYSIEEFVNALEKPRKILLMVKAGAPTDATIEQLKPHLEKGDIVIDGGNTYFKDTQRRNKELAELGIHFIGTGVSGGEEGALKGPSIMPGGQKEAHELVRPIFEAIAAKVDGEPCTTYIGPDGAGHYVKMVHNGIEYGDMQLIAEAYFLLKHVLGMDAAELHEVFADWNKGELNSYLIEITADIFTKIDEETGKPLVDVILDKAGQKGTGKWTSQNALDLGVPLPIITESVFARFLSAMKDERVKASKVLAGPAVKPFEGDRAHFIEAVRRALYMSKICSYAQGFAQMKAASEEYNWNLRYGDIAMIFRGGCIIRAQFLQKIKEAYDRDPALSNLLLDSYFKDIVERYQDALREIVATAAMRGIPVPGSASALAYYDSYRTAVLPANLIQAQRDYFGAHTYERVDKEGIFHTEWLK | soluble
15 | AIADAFEHENRYVHAVYEAIGDHFSATRYRTWPRVQAFLEQLAHEALVLDSGAGNGKYALPVLRQHGYYIAADRCRRLLLRARWQSDALEAQETALLPVECVQADCLFLPFRSGVFDVALSIAVIHHVATARRRVGAVVELGRVLRPTGHALVYVWALRAIPLKLRSRAQSTMDGYLLPWHHKRSTGADALPQKKSDSPSQTYFRFYHLFEEDELRMLVEEANAVSKEGAATTWTLRITGETFDHQNYVVEFQRQNIHALLEDAADNILHPSI | soluble
16 | MGHHHHHHSHMDSKAIAERIKKLQAQQEHVRIGGKGTPRRKKKVIHKTAAADDKKLQSNLKKLSVTNIPGIEEVNMIKDDGTVIHFNNPKVQTSVPANTFSVTGSADNKQITEMLPGILNQLGPESLTHLKKLANNVTKLGPDGKGEDEDVPELVGDFDAASKNETKADEQ | not soluble
17 | MRFTKVVGFLSVLGLAAVFPLTAQAEKAGTAGAGEWDKLGTYTYTYSSPTVYSTGGDFRVCLSGSTPFSVSLHLYEDDPGDNPDDYVGANYFSPGECHTFGSIGKFVDGSNNKAEFFVTDYSGKSKTVTFYDLEHHHHHH | not soluble
18 | MSLRITTLEELLEALDELFDDGSDLTRRGAQDPWERVFSQPGHPLASDLPDACLVDWTRQGLLPSGDGLTALDLGCGLGRNARWLARQGYAVTGLDLSPYAVGQARERTPGPDIRYLEGDVLRDPIPGGPFDVVYDSGCFHHLPPHRRLSYLHTLGQVLRPGGWFGLCTFAWGRMGSAKSDLELLRQGQLEGGVGYTLDDLREMFGGLDFVTGSLLSELEPASEPVFQMDFLQAALFRREGHHHHHH | soluble
19 | MSLATTSTEPPTELSGEITMWHSFTQGPRLESIQKSADAFMQKHPKTKIKIETFSWNDFYTKWTTGLANGNVPDISTALPNQVMEMVNSDALVPLNDSIKRIGQDKFNETALNEAKIGDDYYSVPLYSHAQVMWVRTDLLKEHNIEVPKTWDQLYEASKKLKEAGVYGLSVPFGTNDLMATRFLNFYVRSGGGSLLTKDLKADLTSQLAQDGIKYWVKLYKEISPQDSLNFNVLQQATLFYQGKTAFDFNSGFHIGGINANSPQLIDSIDAYPIPKIKESDKDQGIETSNIPMVVWKNSKHPEVAKAFLEALYNEEDYVKFLDSTPVGMLPTIKGISDSAAYKENETRKKFKHAEEVITEAVKKGTAIGYENGPSVQAGMLTNQHIIEQMFQDIITNGTDPMKAAKEAEKQLNDLFEAVQEGHHHHHH | soluble
20 | MEAVWGILPKTVAAALQHHLPSCRRGIEEIRIRVSRPLEVIVDGTARLLPYEVTKEDGVHLLNKLSHYSIYAVEEELKRGFMTIEGGHRVGLAGKVITEGGKVKAIRDVSSFNIRIAKEQIGISEPLIPYVYDGRWRHTMIIGSPQTGKTTLLRDAARLISSGTGRIPAQKVAIVDERSEIAGCVKGIPQFSFGPRLDVLDACPKAEGMMMMIRSMSPDVMIVDEIGREEDSEAVLEAANAGVSVWTTVHGRNIQDVWQRPTLGPVMEQKVFERFIELTNIPHPGSIRRILDAGGTVLYERAVVHR | not soluble
21 | MKQVCVLGNGQLGRMLRQAGEPLGIAVWPVGLDAEPAAVPFQQSVITAEIERWPETALTRQLARHPAFVNRDVFPIIADRLTQKQLFDKLHLPTAPWQLLAERSEWPAVFDRLGELAIVKRRTGGYDGRGQWRLRANETEQLPAECYGECIVEQGINFSGEVSLVGARGFDGSTVFYPLTHNLHQDGILRTSVAFPQANAQQQARAEEMLSAIMQELGYVGVMAMECFVTPQGLLINELAPRVHNSGHWTQNGASISQFELHLRAITDLPLPQPVVNNPSVMINLIGSDVNYDWLKLPLVHLHWYDKEVRPGRKVGHLNLTDSDTSRLTATLEALIPLLPPEYASGVIWAQSKFG | soluble
22 | MFAERLKELRKREAGLTQERLAMQLGMAKTTLASYEQGKRQPDLETLSKIADRFSVTTDYLLGKNGTPKWATKKDTIDLKDFLEANEGSMTYGGEDLTEEEKQQVRVAMATIFWKRHKHD | not soluble
